US20240043507A1

Legend:
[1] = target: SARS-CoV-2 spike receptor binding domain K417T (SARS-CoV-2) (UniProt P0DTC2); assay: BLI, RBD on AR2G biosensor, mAb as analyte
[2] = target: spike protein of SARS-CoV-2 strain B.1.351 (SARS-CoV-2) (UniProt P0DTC2); assay: cell-based or functional assay
[3] = target: SARS-CoV-2 receptor binding domain with N501Y (SARS-CoV-2) (UniProt P0DTC2); assay: BLI, RBD immobilised on AR2G biosensor, 1:1 fit
[4] = target: SARS-CoV-2 spike protein on authentic virus, strain SARS-CoV-2/human/AUS/VIC01/2020 (Victoria) (SARS-CoV-2) (UniProt P0DTC2); assay: cell-based or functional assay
[5] = target: SARS-CoV-2 spike protein on authentic virus, strain B.1.1.7 (SARS-CoV-2) (UniProt P0DTC2); assay: cell-based or functional assay

Substance | IC50 (FRNT, live virus neutralisation) [2] [µg/mL] | Kd [3] [nM] | also measured
AZD1061 (antibody) | 0.014 |  | Kd [1]: 8 nM
AZD1061 as tested by BLI (Fab by the footnote of Table 12) |  | 1.41 | 
AZD7442 (a combination of AZD1061 and AZD8895) |  |  | IC50 (ug/ml), FRNT [4]: 0.009 µg/mL; B.1.1.7/Victoria Ratio of IC50 [5]: 0.77; IC50 (ug/ml), FRNT [5]: 0.007 µg/mL
AZD8895 (antibody) | 0.046 |  | 
AZD8895 as tested by BLI (Fab by the footnote of Table 12) |  | 2.44 | 
REGN10933 (antibody) | 3.28 |  | 
REGN10933 as tested by BLI (Fab by the footnote of Table 12) |  | 2.75 | 
REGN10987 (antibody) | 0.007 |  | 
REGN10987 as tested by BLI (Fab by the footnote of Table 12) |  | 3.09 | 
